{"source": "patent US20110257105A1", "about": "(CARA THERAPEUTICS, published 2011)", "molecules": {"B1": {"name": "Compound (52): D-Phe-D-Phe-D-Leu-(D-Lys-GlyLactam)2-D-Leu-D-Phe-D-Phe (peptide)", "peptide": "[dF][dF][dL][dK]G", "modifications": "not fully specified (bridges); printed as D-Phe-D-Phe-D-Leu-(D-Lys-GlyLactam)2-D-Leu-D-Phe-D-Phe; also: two chains joined through (D-Lys-Gly lactam)2 linker"}, "B2": {"name": "Compound (51): 1N,4N-bis-(D-Phe-D-Phe-D-Leu-D-Nar)-4-amino-4-carboxylic piperidine (peptide)", "peptide": "[dF][dF][dL][dAgb]-{4‑amino‑4‑carboxylic piperidine}", "modifications": "also: two identical chains joined through C-termini to N1 and 4-amino group of piperidine scaffold"}, "B3": {"name": "Compound (49): 1N,4N-bis-[D-Phe-D-Phe-D-Leu-(iPr)D-Orn]-4-amino-4-carboxylic-piperidine (peptide)", "peptide": "[dF][dF][dL][dOrn(iPr)]-{4‑amino‑4‑carboxylic piperidine}", "modifications": "also: two identical chains joined through C-termini to N1 and 4-amino group of piperidine scaffold"}, "B4": {"name": "Compound (50): 1N,4N-bis-[D-Phe-D-Phe-D-Leu-D-Dap(amidino)]-4-amino-4-carboxylic piperidine (peptide)", "peptide": "[dF][dF][dL][dDap(amidino)]-{4‑amino‑4‑carboxylic piperidine}", "modifications": "also: two identical chains joined through C-termini to N1 and 4-amino group of piperidine scaffold"}, "B5": {"name": "Compound (3): D-Phe-D-Phe-D-Nle-D-Arg-D-Pro-OH (peptide)", "peptide": "[dF][dF][dNle][dR][dP]-OH", "modifications": "N-terminus assumed", "SMILES": "CCCC[C@@H](NC(=O)[C@@H](Cc1ccccc1)NC(=O)[C@H](N)Cc1ccccc1)C(=O)N[C@H](CCCNC(=N)N)C(=O)N1CCC[C@@H]1C(=O)O"}}, "note": "Square brackets hold non-standard residues; d marks the D form. Ends that are not written are not given here. dAgb = N=C(N)NCC[C@@H](N)C(=O)O; dNle = CCCC[C@@H](N)C(=O)O", "data": [{"target": "mouse kappa opioid receptor (mouse) (UniProt P33534)", "sequence (P33534 whole entry)": "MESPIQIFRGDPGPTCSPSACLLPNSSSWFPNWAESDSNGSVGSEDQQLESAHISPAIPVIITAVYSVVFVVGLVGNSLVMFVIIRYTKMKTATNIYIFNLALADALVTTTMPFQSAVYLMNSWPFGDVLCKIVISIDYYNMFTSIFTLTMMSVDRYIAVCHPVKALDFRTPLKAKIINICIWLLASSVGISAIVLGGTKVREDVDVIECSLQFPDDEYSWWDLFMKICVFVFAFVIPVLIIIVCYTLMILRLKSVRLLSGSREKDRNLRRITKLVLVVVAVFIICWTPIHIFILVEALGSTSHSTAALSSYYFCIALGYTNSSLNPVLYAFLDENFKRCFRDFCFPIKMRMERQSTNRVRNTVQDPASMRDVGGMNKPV", "assay": "cell-based or functional assay", "units": {"EC50 (nM), cAMP inhibition in R1.G1 cells": "nM", "Efficacy(%), cAMP inhibition in R1.G1 cells": "%"}, "values": [{"molecule": "Compound (39): D-Phe-D-Phe-D-Leu-D-Orn-[eLys(D-Orn-D-Leu-H)]-OH (peptide)", "EC50 (nM), cAMP inhibition in R1.G1 cells": 67.3, "Efficacy(%), cAMP inhibition in R1.G1 cells": 35}, {"molecule": "B1", "EC50 (nM), cAMP inhibition in R1.G1 cells": 13.8, "Efficacy(%), cAMP inhibition in R1.G1 cells": 76}]}, {"target": "mouse kappa opioid receptor (mouse, UniProt P33534 1-380)", "sequence (P33534 whole entry)": "as above", "assay": "cell-based or functional assay", "units": {"EC50 (nM), cAMP inhibition in R1.G1 cells": "nM", "Efficacy(%), cAMP inhibition in R1.G1 cells": "%"}, "values": [{"molecule": "B2", "EC50 (nM), cAMP inhibition in R1.G1 cells": 95.8, "Efficacy(%), cAMP inhibition in R1.G1 cells": 60}, {"molecule": "B3", "EC50 (nM), cAMP inhibition in R1.G1 cells": 1.83, "Efficacy(%), cAMP inhibition in R1.G1 cells": 50}, {"molecule": "B4", "EC50 (nM), cAMP inhibition in R1.G1 cells": 56.7, "Efficacy(%), cAMP inhibition in R1.G1 cells": 77}, {"molecule": "B5", "EC50 (nM), cAMP inhibition in R1.G1 cells": 9.05, "Efficacy(%), cAMP inhibition in R1.G1 cells": 88}]}]}
